These are literature values, as cited in publication PMC5266483.

In general, pKa refers to the negative logarithm of the acid dissociation constant.

This series has as its target Lys14 (position 14, …). Kind of series: NMR. The settings on record: 37 °C; Transmembrane helix in DOPC.

GGALWLALALALAKALALWLAGA [GWALP23-K14 (synthetic construct; L14K)]: the pKa is 6.5.
